Data from US11293031B2.

System: CN1CCC[C@H]1c1cccnc1
Assay: cells, lysate or membranes named
Conditions: other: nicotine demethylase reaction, yeast microsomes, 25° C., pH 7.1, mean±standard error

NtabCYP82E5v2 (Nicotiana tabacum)
Km: 5.6 ± 1.4 µM
Vmax: 0.7±0.02 nmol min^−1 mg^−1 protein
